How the values were obtained:
Details in all cases: EMSA: 10 mM Tris-HCl pH 7.5, 50 mM NaCl, 1 mM EDTA, 5% glycerol, 1 mg/mL BSA, 1 mM DTT; 30 min, room temperature; 6% native PAGE, 0.5x TBE
[1] = target: T1, HDIP1-c (Arabidopsis thaliana) (UniProt F4I0M4); assay: EMSA
T1 sequence: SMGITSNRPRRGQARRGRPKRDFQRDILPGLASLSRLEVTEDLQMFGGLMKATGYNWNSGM

[2] = target: T2, HDIP1-b (Arabidopsis thaliana) (UniProt F4I0M4); assay: EMSA
T2 sequence: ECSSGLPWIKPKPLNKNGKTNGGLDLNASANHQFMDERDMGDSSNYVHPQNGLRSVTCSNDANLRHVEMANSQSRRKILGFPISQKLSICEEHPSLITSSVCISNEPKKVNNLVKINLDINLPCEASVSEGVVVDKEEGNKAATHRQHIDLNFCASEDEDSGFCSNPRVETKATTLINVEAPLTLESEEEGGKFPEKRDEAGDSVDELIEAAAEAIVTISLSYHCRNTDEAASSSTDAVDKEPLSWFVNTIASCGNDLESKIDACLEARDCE

[3] = target: T3, HDIP3-DBD (Arabidopsis thaliana) (UniProt Q9LMG4); assay: EMSA
T3 sequence: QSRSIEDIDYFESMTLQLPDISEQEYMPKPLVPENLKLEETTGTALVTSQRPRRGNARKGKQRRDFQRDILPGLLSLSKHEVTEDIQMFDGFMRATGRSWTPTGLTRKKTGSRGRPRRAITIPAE

[4] = target: T4, HDIP1-d (Arabidopsis thaliana) (UniProt F4I0M4); assay: EMSA
T4 sequence: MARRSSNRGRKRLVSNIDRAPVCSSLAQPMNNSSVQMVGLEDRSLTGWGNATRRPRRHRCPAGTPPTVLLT

[5] = target: T5, HDIP1-a (Arabidopsis thaliana) (UniProt F4I0M4); assay: EMSA
T5 sequence: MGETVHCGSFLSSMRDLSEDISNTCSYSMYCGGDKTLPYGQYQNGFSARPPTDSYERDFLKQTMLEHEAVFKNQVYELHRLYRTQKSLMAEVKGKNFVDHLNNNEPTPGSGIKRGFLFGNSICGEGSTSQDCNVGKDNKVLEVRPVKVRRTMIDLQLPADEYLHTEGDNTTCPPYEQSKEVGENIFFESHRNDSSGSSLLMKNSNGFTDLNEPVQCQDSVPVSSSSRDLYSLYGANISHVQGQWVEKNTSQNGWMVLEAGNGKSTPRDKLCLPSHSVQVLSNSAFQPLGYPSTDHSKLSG

[6] = target: T1, HDIP1-c (Arabidopsis thaliana); assay: competition

Row | Sequence | binding [1] | binding [2] | binding [3] | binding [4] | binding [5] | binding [6]
1 | CCACTCCACATAGCTACGTCACTTAAAGTCCCATAGTAACTAATTTTCTTTGAATGTTATAGCAAATTATTAGCAATGTATGATTCTTTGGGTCAAATCTTACACTAAAAACATGAAAATAATTTGAATATCAAGAGATTCATATATTCATATTTTATAACCAAAATATGTAGGGTCTAAATTATTGCTTCTTGACTAGG (double strand) [P2 (200 bp)] | binds | – | – | – | – | –
2 | TTCCTAAGAGGTCTAGATTGGTGCTTGGACTTTAATTTGGTCTTCGTCTCTCGTTCTCGTATTTATGCATTTTGAAACTCAAAAAAGGAAGAGAGAGAAGAATAATATGATTTTGGCTACTTGGTTTGGAAATAAGTTAATTAAGTAAAAGTGTATTGAGATATAATTCAATGGTACGTGTGTGAATCCAAAGTCGTGTT (double strand) [P3 (200 bp)] | binds | – | – | – | – | –
3 | TGTGAAGAATGCAGTAAGAGGCAGTCAAAGATTCAAAGGGAAAAAAGTTTACGAAAACAAAAGATTATATTTTGGGAGTATTAGGCTGCCACGTGGAAACACTTGCACCGGCATTTGACCGTCGCCGACACATGACCTGGCACGTGCTAGAGACTGTCTTCTCTTCTTCTTCTTCTTTTTCCCTCACTGTTTCACGAACC (double strand) [P1 (200 bp)] | binds | no binding | binds | no binding | no binding | binds

Source: paper PMC12170880
